# Test results as given in patent US20180155451A1 (published 2018).
# T1: FcγRIIa H (human, UniProt P12318 34-217)
# T1 construct: extracellular domain; also called FcgRIIa H type; 2aH; not shown: His tag at the C terminus
# T1 sequence (looked up): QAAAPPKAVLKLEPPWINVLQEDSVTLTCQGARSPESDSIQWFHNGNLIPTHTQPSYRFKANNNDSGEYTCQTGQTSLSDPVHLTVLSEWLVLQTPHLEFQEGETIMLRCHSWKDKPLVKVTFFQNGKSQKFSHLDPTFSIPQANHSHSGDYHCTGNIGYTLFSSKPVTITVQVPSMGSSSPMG
# B1: GpH7-B3 variant I332_10E/GpL16-k0 (antibody, human IgG1, kappa)
# heavy: not shown
# light: DIVMTQSPLSLPVTPGEPASISCQASESLVHSNRNTYLHWYLQKPGQSPQLLIYKVSNRFSGVPDRFSGSGSGTDFTLKISRVEAEDVGVYYCSQNTHVPPTFGQGTKVEIERTVAAPSVFIFPPSDEQLKSGTASVVCLLNNFYPREAKVQWKVDNALQSGNSQESVTEQDSKDSTYSLSSTLTLSKADYEKHKVYACEVTHQGLSSPVTKSFNRGEC
# notes: also called Ho Ab I332_10E
# B2: GpH7-B3 variant A330_12R/GpL16-k0 (antibody, human IgG1, kappa)
# heavy: not shown
# light: B1 light
# notes: also called Ho Ab A330_12R
# B3: GpH7-B3 variant S324_09D/GpL16-k0 (antibody, human IgG1, kappa)
# heavy: not shown
# light: B1 light
# notes: also called Ho Ab S324_09D
# B4: GpH7-B3 variant G236_03V/GpL16-k0 (antibody, human IgG1, kappa)
# heavy: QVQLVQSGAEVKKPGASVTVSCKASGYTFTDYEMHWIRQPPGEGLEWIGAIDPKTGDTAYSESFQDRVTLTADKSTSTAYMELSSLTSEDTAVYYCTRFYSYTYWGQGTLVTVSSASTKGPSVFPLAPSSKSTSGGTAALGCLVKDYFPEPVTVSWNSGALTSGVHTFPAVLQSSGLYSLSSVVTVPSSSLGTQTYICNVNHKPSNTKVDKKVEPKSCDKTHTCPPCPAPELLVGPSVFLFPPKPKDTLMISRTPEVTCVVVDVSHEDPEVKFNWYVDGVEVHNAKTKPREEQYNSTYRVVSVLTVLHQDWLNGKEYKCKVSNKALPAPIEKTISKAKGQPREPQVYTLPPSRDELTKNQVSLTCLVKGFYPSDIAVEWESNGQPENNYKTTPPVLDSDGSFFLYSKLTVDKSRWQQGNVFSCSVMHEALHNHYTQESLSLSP
# light: B1 light
# notes: also called Ho Ab G236_03V
# B5: GpH7-B3 variant Q295_07I/GpL16-k0 (antibody, human IgG1, kappa)
# heavy: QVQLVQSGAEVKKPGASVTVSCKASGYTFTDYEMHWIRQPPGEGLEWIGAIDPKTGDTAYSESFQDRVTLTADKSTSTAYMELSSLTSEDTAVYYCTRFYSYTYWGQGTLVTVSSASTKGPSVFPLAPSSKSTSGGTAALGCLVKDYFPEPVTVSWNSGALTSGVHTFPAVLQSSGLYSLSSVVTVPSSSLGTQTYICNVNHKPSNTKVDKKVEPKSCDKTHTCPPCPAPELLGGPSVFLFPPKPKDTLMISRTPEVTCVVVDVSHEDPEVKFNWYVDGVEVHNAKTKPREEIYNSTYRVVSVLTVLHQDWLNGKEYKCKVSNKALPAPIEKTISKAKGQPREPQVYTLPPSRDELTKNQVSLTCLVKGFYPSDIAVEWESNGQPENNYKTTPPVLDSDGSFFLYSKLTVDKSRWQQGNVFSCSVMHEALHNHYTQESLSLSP
# light: B1 light
# notes: also called Ho Ab Q295_07I
# B6: GpH7-B3 variant K334_07I/GpL16-k0 (antibody, human IgG1, kappa)
# heavy: not shown
# light: B1 light
# notes: also called Ho Ab K334_07I
# B7: GpH7-B3 variant T335_10E/GpL16-k0 (antibody, human IgG1, kappa)
# heavy: not shown
# light: B1 light
# notes: also called Ho Ab T335_10E
# B8: GpH7-B3 variant I332_18N/GpL16-k0 (antibody, human IgG1, kappa)
# heavy: not shown
# light: B1 light
# notes: also called Ho Ab I332_18N
# B9: GpH7-B3 variant T335_15Y/GpL16-k0 (antibody, human IgG1, kappa)
# heavy: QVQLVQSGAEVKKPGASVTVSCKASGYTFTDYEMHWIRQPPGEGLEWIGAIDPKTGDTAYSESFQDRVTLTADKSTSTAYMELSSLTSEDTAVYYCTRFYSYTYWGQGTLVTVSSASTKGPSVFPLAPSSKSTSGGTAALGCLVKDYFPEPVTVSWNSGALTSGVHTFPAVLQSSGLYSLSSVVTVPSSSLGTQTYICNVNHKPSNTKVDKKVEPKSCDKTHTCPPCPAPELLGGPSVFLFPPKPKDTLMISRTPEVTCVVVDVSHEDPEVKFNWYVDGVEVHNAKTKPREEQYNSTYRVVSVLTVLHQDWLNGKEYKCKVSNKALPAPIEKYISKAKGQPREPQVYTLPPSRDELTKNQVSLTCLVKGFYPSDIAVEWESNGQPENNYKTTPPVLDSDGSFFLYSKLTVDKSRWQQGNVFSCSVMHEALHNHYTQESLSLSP
# light: B1 light
# notes: also called Ho Ab T335_15Y
# B10: GpH7-B3 variant L235_20W/GpL16-k0 (antibody, human IgG1, kappa)
# heavy: not shown
# light: B1 light
# notes: also called Ho Ab L235_20W
# B11: GpH7-B3 variant P271_01G/GpL16-k0 (antibody, human IgG1, kappa)
# heavy: not shown
# light: B1 light
# notes: also called Ho Ab P271_01G
# B12: GpH7-B3 variant S337_16H/GpL16-k0 (antibody, human IgG1, kappa)
# heavy: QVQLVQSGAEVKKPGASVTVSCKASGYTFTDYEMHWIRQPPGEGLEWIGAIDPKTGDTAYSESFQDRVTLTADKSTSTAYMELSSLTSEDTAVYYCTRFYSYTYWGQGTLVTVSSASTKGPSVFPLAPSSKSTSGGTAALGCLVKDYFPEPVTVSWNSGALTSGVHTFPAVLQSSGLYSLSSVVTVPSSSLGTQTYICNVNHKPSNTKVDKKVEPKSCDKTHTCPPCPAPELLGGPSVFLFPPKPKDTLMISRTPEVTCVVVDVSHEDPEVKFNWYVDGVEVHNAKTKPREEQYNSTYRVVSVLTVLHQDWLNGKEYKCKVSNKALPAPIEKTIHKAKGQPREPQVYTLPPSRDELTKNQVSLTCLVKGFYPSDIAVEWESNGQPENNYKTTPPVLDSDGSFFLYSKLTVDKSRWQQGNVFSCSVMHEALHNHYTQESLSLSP
# light: B1 light
# notes: also called Ho Ab S337_16H
# B13: GpH7-B3 variant I332_06M/GpL16-k0 (antibody, human IgG1, kappa)
# heavy: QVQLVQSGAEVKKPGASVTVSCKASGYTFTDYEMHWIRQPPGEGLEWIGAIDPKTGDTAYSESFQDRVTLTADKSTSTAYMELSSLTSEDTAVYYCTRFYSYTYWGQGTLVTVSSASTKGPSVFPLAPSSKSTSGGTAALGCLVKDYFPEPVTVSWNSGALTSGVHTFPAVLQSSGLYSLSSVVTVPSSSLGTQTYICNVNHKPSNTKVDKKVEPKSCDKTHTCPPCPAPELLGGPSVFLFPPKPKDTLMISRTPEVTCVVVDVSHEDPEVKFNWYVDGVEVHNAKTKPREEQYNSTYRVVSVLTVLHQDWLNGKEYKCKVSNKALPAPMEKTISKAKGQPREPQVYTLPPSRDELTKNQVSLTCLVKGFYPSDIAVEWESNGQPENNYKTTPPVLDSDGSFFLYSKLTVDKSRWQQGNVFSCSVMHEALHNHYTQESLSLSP
# light: B1 light
# notes: also called Ho Ab I332_06M
# B14: GpH7-B3 variant S337_14T/GpL16-k0 (antibody, human IgG1, kappa)
# heavy: not shown
# light: B1 light
# notes: also called Ho Ab S337_14T
# B15: GpH7-B3 variant L328_02A/GpL16-k0 (antibody, human IgG1, kappa)
# heavy: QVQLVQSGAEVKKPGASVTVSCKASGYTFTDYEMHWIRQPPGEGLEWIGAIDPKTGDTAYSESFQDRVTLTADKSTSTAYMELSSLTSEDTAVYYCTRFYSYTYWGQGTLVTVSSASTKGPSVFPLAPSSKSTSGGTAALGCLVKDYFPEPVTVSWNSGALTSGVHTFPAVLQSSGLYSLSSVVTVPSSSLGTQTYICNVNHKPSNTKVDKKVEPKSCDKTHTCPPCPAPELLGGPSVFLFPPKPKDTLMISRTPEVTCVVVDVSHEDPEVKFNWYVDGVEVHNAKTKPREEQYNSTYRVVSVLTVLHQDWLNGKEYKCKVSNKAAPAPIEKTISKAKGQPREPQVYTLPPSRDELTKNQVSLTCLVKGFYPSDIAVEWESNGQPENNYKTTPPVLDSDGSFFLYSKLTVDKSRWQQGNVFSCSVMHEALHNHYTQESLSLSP
# light: B1 light
# notes: also called Ho Ab L328_02A
# B16: GpH7-B3 variant I332_09D/GpL16-k0 (antibody, human IgG1, kappa)
# heavy: not shown
# light: B1 light
# notes: also called Ho Ab I332_09D
# B17: GpH7-B3 variant L328_13S/GpL16-k0 (antibody, human IgG1, kappa)
# heavy: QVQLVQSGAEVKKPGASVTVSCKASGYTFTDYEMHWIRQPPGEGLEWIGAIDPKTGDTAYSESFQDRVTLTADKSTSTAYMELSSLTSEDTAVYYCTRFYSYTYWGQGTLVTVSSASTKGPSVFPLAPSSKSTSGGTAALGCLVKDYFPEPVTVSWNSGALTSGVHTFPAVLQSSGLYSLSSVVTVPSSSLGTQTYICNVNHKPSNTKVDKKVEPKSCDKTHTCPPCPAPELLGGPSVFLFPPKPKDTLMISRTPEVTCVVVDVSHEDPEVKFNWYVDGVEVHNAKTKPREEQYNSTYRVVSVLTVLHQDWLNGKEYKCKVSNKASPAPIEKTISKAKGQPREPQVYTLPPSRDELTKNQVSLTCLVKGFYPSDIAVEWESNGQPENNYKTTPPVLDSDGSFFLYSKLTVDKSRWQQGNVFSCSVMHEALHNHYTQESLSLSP
# light: B1 light
# notes: also called Ho Ab L328_13S
# B18: GpH7-B3 variant S324_06M/GpL16-k0 (antibody, human IgG1, kappa)
# heavy: not shown
# light: B1 light
# notes: also called Ho Ab S324_06M
# B19: GpH7-B3 variant I332_03V/GpL16-k0 (antibody, human IgG1, kappa)
# heavy: not shown
# light: B1 light
# notes: also called Ho Ab I332_03V
# B20: GpH7-B3 variant K334_04F/GpL16-k0 (antibody, human IgG1, kappa)
# heavy: not shown
# light: B1 light
# notes: also called Ho Ab K334_04F
# B21: GpH7-B3 variant K334_16H/GpL16-k0 (antibody, human IgG1, kappa)
# heavy: not shown
# light: B1 light
# notes: also called Ho Ab K334_16H
# B22: GpH7-B3 variant S324_10E/GpL16-k0 (antibody, human IgG1, kappa)
# heavy: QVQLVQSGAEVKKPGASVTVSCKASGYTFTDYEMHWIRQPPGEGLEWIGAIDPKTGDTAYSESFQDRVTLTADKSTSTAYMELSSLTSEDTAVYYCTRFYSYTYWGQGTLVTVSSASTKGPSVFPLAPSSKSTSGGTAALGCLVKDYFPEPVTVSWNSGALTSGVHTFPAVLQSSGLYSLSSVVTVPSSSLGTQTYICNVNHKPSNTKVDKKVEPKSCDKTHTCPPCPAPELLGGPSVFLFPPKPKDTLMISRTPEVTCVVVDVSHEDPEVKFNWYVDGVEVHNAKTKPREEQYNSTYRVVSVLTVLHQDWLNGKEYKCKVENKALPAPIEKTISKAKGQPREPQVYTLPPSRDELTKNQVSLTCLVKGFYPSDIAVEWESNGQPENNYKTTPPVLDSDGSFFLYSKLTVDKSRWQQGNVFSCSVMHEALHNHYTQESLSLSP
# light: B1 light
# notes: also called Ho Ab S324_10E
# B23: GpH7-B3 variant I336_08L/GpL16-k0 (antibody, human IgG1, kappa)
# heavy: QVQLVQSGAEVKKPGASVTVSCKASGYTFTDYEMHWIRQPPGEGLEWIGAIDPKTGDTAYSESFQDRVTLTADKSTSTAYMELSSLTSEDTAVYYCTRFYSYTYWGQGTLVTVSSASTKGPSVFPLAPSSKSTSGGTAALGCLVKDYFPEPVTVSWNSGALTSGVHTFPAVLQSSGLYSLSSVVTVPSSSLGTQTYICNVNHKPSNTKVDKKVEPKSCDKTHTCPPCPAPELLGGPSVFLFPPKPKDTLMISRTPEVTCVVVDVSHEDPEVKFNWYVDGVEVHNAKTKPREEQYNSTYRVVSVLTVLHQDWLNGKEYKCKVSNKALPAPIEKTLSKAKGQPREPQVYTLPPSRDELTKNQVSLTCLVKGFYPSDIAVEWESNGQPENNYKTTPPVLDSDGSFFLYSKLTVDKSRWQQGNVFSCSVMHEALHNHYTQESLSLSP
# light: B1 light
# notes: also called Ho Ab I336_08L
# B24: GpH7-B3 variant I336_06M/GpL16-k0 (antibody, human IgG1, kappa)
# heavy: not shown
# light: B1 light
# notes: also called Ho Ab I336_06M
# B25: GpH7-B3 variant K334_03V/GpL16-k0 (antibody, human IgG1, kappa)
# heavy: not shown
# light: B1 light
# notes: also called Ho Ab K334_03V
# B26: GpH7-B3 variant S239_09D/GpL16-k0 (antibody, human IgG1, kappa)
# heavy: not shown
# light: B1 light
# notes: also called Ho Ab S239_09D
# B27: GpH7-B3 variant S337_10E/GpL16-k0 (antibody, human IgG1, kappa)
# heavy: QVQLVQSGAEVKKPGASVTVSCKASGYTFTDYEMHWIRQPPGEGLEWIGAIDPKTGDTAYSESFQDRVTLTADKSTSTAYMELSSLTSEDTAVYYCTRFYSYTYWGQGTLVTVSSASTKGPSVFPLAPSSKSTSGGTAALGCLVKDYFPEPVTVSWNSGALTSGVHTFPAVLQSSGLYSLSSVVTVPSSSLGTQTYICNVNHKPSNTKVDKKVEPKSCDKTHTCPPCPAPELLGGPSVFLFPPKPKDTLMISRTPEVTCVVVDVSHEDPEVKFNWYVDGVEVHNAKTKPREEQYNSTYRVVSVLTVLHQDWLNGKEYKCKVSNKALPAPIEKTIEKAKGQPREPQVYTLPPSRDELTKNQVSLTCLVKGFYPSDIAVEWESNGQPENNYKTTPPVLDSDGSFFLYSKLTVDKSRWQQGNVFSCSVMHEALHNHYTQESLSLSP
# light: B1 light
# notes: also called Ho Ab S337_10E
# B28: GpH7-B3 variant K326_19Q/GpL16-k0 (antibody, human IgG1, kappa)
# heavy: not shown
# light: B1 light
# notes: also called Ho Ab K326_19Q
# B29: GpH7-B3 variant G236_10E/GpL16-k0 (antibody, human IgG1, kappa)
# heavy: not shown
# light: B1 light
# notes: also called Ho Ab G236_10E
# B30: GpH7-B3 variant I332_14T/GpL16-k0 (antibody, human IgG1, kappa)
# heavy: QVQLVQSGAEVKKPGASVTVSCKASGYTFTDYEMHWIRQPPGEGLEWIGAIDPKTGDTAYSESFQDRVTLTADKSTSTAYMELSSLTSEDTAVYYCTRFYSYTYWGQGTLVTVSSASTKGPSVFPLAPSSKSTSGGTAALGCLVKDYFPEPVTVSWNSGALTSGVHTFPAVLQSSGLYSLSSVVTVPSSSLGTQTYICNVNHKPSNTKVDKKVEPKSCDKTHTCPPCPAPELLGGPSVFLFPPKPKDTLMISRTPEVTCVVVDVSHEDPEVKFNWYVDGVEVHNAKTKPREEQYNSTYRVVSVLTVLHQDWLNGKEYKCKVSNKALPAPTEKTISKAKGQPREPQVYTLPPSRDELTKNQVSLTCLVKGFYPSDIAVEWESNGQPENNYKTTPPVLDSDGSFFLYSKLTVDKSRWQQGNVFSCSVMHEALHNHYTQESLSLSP
# light: B1 light
# notes: also called Ho Ab I332_14T
# Molecular target: T1, FcγRIIa H
# Experiment: SPR Biacore, relative binding
row,Ho/Con_2aH,Binder
1,117 % of GpH7-B3/GpL16-k0 (=100),B1
2,110 % of GpH7-B3/GpL16-k0 (=100),B2
3,113 % of GpH7-B3/GpL16-k0 (=100),B3
4,111 % of GpH7-B3/GpL16-k0 (=100),B4
5,108 % of GpH7-B3/GpL16-k0 (=100),B5
6,116 % of GpH7-B3/GpL16-k0 (=100),B6
7,105 % of GpH7-B3/GpL16-k0 (=100),B7
8,118 % of GpH7-B3/GpL16-k0 (=100),B8
9,102 % of GpH7-B3/GpL16-k0 (=100),B9
10,112 % of GpH7-B3/GpL16-k0 (=100),B10
11,110 % of GpH7-B3/GpL16-k0 (=100),B11
12,102 % of GpH7-B3/GpL16-k0 (=100),B12
13,114 % of GpH7-B3/GpL16-k0 (=100),B13
14,105 % of GpH7-B3/GpL16-k0 (=100),B14
15,134 % of GpH7-B3/GpL16-k0 (=100),B15
16,130 % of GpH7-B3/GpL16-k0 (=100),B16
17,131 % of GpH7-B3/GpL16-k0 (=100),B17
18,123 % of GpH7-B3/GpL16-k0 (=100),B18
19,106 % of GpH7-B3/GpL16-k0 (=100),B19
20,103 % of GpH7-B3/GpL16-k0 (=100),B20
21,101 % of GpH7-B3/GpL16-k0 (=100),B21
22,104 % of GpH7-B3/GpL16-k0 (=100),B22
23,101 % of GpH7-B3/GpL16-k0 (=100),B23
24,100 % of GpH7-B3/GpL16-k0 (=100),B24
25,111 % of GpH7-B3/GpL16-k0 (=100),B25
26,112 % of GpH7-B3/GpL16-k0 (=100),B26
27,101 % of GpH7-B3/GpL16-k0 (=100),B27
28,100 % of GpH7-B3/GpL16-k0 (=100),B28
29,122 % of GpH7-B3/GpL16-k0 (=100),B29
30,125 % of GpH7-B3/GpL16-k0 (=100),B30
